T1: Human DLL3-ECD (recombinant extracellular domain of human DLL3, Examples 11, 17 and 19) (human, UniProt Q9NYJ7 27-466, biotinylated at the Avi-tag where immobilised (Examples 11 and 19))
T1 construct: also called hDLL3-ECD; human ECD; not shown: Avi-tag and Fc knob into hole (order depends on the format)
T1 sequence: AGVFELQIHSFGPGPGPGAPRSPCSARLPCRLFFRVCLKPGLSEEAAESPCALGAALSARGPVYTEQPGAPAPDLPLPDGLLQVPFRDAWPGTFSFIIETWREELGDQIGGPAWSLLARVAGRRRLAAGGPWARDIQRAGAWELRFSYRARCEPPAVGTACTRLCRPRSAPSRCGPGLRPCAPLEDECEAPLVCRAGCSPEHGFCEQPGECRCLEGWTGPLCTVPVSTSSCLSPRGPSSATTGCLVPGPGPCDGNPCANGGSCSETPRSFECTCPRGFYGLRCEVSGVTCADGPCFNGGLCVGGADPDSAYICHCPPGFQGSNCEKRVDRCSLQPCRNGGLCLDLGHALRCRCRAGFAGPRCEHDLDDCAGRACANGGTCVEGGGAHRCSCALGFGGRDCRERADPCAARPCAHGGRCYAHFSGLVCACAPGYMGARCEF

T2: mouse DLL3-ECD (recombinant extracellular domain of mouse DLL3) (mouse, UniProt O88516 33-490)
T2 construct: extracellular domain
T2 sequence (looked up): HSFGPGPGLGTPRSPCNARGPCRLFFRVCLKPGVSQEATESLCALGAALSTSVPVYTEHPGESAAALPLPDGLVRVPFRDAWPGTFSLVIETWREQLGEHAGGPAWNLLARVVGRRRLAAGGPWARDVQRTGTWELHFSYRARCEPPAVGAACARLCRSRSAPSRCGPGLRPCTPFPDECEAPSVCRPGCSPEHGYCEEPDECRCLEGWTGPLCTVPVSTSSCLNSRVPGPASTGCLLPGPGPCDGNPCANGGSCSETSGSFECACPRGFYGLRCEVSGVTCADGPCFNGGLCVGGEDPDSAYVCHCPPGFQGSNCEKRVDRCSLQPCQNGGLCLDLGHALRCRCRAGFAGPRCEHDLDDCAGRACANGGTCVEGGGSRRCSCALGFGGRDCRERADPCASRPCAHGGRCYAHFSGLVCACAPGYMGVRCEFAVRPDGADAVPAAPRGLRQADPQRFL

T3: Cyno DLL3-ECD (extracellular domain of cynomolgus macaque DLL3, residues 27 to 466, Avi-tag, 3C site, Fc knob … (cynomolgus macaque, UniProt A0A2K5WSR1 27-464, biotinylated at the Avi-tag (Example 11)))
T3 construct: range 27-466; also called cyno ECD; cynomolgus monkey DLL3; not shown: Avi-tag, 3C protease recognition site and Fc knob into hole
T3 sequence: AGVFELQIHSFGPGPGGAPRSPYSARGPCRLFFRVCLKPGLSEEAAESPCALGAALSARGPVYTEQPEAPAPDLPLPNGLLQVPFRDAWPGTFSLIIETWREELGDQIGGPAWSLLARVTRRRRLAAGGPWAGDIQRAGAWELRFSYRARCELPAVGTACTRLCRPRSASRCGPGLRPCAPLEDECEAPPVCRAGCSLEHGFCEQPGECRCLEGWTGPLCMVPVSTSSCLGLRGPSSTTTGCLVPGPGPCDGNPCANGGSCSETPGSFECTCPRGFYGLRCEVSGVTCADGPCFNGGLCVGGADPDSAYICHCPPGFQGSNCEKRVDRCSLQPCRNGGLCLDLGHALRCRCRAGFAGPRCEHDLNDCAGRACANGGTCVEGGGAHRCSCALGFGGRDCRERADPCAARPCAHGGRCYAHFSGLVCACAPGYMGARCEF

T4: Human DLL3-ECD (Homo sapiens, UniProt Q9NYJ7)
T4 construct: the extracellular domain of DLL3 (DLL3-ECD) from human, cynomolgus monkey, mouse and pig
T4 sequence (Q9NYJ7 27-492 limits assumed): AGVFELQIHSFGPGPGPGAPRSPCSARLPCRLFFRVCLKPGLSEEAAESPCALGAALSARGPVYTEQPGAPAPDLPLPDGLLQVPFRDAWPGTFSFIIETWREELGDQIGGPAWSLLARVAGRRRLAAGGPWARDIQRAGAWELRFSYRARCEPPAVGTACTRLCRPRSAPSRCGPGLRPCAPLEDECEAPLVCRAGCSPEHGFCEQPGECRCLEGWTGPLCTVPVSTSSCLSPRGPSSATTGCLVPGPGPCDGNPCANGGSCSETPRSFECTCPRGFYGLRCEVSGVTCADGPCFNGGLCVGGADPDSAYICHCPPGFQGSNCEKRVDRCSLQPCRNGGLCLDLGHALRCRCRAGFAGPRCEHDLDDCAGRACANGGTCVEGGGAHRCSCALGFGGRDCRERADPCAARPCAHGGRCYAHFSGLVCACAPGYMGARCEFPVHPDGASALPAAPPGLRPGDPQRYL

T5: mouse DLL3-ECD (Mus musculus, UniProt O88516)
T5 construct: the extracellular domain of DLL3 (DLL3-ECD) from human, cynomolgus monkey, mouse and pig
T5 sequence (O88516 33-490 limits assumed): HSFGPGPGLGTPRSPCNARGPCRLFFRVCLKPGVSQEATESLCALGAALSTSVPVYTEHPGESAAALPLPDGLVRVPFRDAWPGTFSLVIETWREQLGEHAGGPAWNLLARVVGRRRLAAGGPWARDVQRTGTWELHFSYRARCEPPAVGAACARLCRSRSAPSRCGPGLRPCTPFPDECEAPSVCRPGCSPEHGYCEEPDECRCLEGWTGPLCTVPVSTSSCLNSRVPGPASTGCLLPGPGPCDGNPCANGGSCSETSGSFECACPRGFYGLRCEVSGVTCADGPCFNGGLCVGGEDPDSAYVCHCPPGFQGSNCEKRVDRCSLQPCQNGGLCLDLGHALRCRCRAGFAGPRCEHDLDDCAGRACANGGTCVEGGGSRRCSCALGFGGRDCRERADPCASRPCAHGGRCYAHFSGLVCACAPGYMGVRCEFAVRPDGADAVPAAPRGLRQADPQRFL


How the values were obtained:
[1] = target: T1, Human DLL3-ECD (recombinant …); assay: SPR (ProteOn), biotinylated DARPin on chip, human DLL3-ECD as analyte, 1:1 Langmuir fit
Protocol: (§1) SPR multi-trace analyses were performed similarly as described in Examples 1 and 11. Here, the binding kinetics of immobilized DARPin proteins to the extracellular domain of DLL3 (DLL3-ECD) from human, cynomolgus monkey, mouse and pig were determined.
(§2) Streptavidin SAHC200M (Xantec) SPR chip was conditioned according to the manufacturer's protocol.

[2] = target: T2, mouse DLL3-ECD (recombinant …); assay: SPR (ProteOn), biotinylated DARPin on chip, mouse DLL3-ECD as analyte, 1:1 Langmuir fit
Protocol: as §1, §2

[3] = target: pig DLL3-ECD (recombinant extracellular domain of pig DLL3) (pig); assay: SPR (ProteOn), biotinylated DARPin on chip, pig DLL3-ECD as analyte, 1:1 Langmuir fit
[4] = target: T3, Cyno DLL3-ECD (extracellular domain of …); assay: SPR (ProteOn), biotinylated DARPin on chip, cyno DLL3-ECD as analyte, 1:1 Langmuir fit
Protocol: as §1, §2

Cyno DLL3-ECD = assay: SPR, immobilized DARPin, binding of cyno DLL3-ECD (Example 17); design: species or system cynomolgus monkey; details: immobilized biotinylated DARPin, DLL3-ECD as analyte, 1:1 Langmuir, Table 19
Protocol: (§3) Kinetic binding parameters and binding affinities of two domain (2D) ankyrin repeat protein MAM279 and single domain (1 D) ankyrin repeat protein MAM093 to DLL3 from different species were determined. The DLL3-specific ankyrin repeat domain of MAM093 is identical to the DLL3-specific ankyrin repeat domain comprised in MAM279.
(§4) SPR multi-trace analyses were performed similarly as described in Examples 1 and 11. Here, the binding kinetics of immobilized DARPin proteins to the extracellular domain of DLL3 (DLL3-ECD) from human, cynomolgus monkey, mouse and pig were determined. Various concentrations of recombinant DLL3-ECD starting from 500 nM were applied to immobilized biotinylated 2D DARPin (MAM279; SEQ ID NO: 11) or 1 D DARPin (MAM093; SEQ ID NO: 1) (both with a Glycine-Serine (GS) at the N-terminal end) for on-rate and off-rate measurements.
(§5) Streptavidin SAHC200M (Xantec) SPR chip was conditioned according to the manufacturer's protocol. Biotinylated DARPins were immobilized to a coating density of 27 resonance units (RU) for 1D DARPin and 25 RU for 2D DARPin. All analytes (3-fold dilution ranging from 500-6.17 nM) were injected in succession for 240 s and dissociation was recorded for 10800 s using a constant flow of 100 μl/min.

pig DLL3-ECD = assay: SPR, immobilized DARPin, binding of pig DLL3-ECD (Example 17); details: immobilized biotinylated DARPin, DLL3-ECD as analyte, 1:1 Langmuir, Table 20
Protocol: as §3, §4, §5

Human DLL3-ECD = target: T4, Human DLL3-ECD; assay: SPR, immobilized DARPin, binding of human DLL3-ECD (Example 17); details: immobilized biotinylated DARPin, DLL3-ECD as analyte, 1:1 Langmuir, Table 19
Protocol: as §3, §4, §5

mouse DLL3-ECD = target: T5, mouse DLL3-ECD; assay: SPR, immobilized DARPin, binding of mouse DLL3-ECD (Example 17); details: immobilized biotinylated DARPin, DLL3-ECD as analyte, 1:1 Langmuir, Table 20
Protocol: as §3, §4, §5

Row | Kd [1] [nM] | koff [1] [s⁻¹] | kon [1] [M⁻¹ s⁻¹] | Kd [2] [nM] | koff [2] [s⁻¹] | kon [2] [M⁻¹ s⁻¹] | Kd [3] [nM] | koff [3] [s⁻¹] | kon [3] [M⁻¹ s⁻¹] | Kd [4] [nM] | koff [4] [s⁻¹] | kon [4] [M⁻¹ s⁻¹] | Molecule | other results
1 | 0.127 | 1.31e-05 | 102000 | 83.9 | 0.00282 | 33700 | 17.3 | 0.000319 | 18400 | 8.88 | 0.000939 | 106000 | Biotinylated 2D DARPin MAM279 (SEQ ID NO: 11) with a Glycine-Serine (GS) at the N-terminal end (designed binder, biotinylated (site and any tag used not stated), also called Biotinylated DARPin MAM279) GSDLGKKLLEAARAGQDDEVRELLKAGADVNAKDYFSHTPLHLAARNGHLKIVEVLLKAGADVNAKDFAGKTPLHLAADAGHLEIVEVLLKAGADVNAQDIFGKTPADIAADAGHEDIAEVLQKAAGSPTPTPTTPTPTPTTPTPTPTGSDLGKKLLAAAAQGQDDEVRELLKAGANVNAKDLFGYTPLHLAAWRGHLEIVEVLLKAGADVNAKDAAGETPLHLAAWFGHLEIVEVLLKAGADVNAQDLQGKTPADLAAKEGHEDIAEVLQKAA | –
2 | – | – | – | – | – | – | – | – | – | – | – | – | MAM093: Ankyrin repeat domain specific for DLL3 (SEQ ID NO: 1); single domain (1D) DARPin (protein, Ankyrin repeat domain specific for DLL3 (MAM093), single domain (1D) DARPin) DLGKKLLAAAAQGQDDEVRELLKAGANVNAKDLFGYTPLHLAAWRGHLEIVEVLLKAGADVNAKDAAGETPLHLAAWFGHLEIVEVLLKAGADVNAQDLQGKTPADLAAKEGHEDIAEVLQKAA | Kd (Cyno DLL3-ECD): 8.72 nM; Koff Cyno DLL3-ECD (Cyno DLL3-ECD): 0.000825 s⁻¹; Kon Cyno DLL3-ECD (Cyno DLL3-ECD): 94700 M⁻¹ s⁻¹; Kd (pig DLL3-ECD): 14.3 nM; Koff pig DLL3-ECD (pig DLL3-ECD): 0.00033 s⁻¹; Kon pig DLL3-ECD (pig DLL3-ECD): 23100 M⁻¹ s⁻¹; Kd (Human DLL3-ECD): 0.13 nM; Koff Human DLL3-ECD (Human DLL3-ECD): 1.18e-05 s⁻¹; Kon Human DLL3-ECD (Human DLL3-ECD): 90700 M⁻¹ s⁻¹; Kd (mouse DLL3-ECD): 149 nM; Koff mouse DLL3-ECD (mouse DLL3-ECD): 0.004 s⁻¹; Kon mouse DLL3-ECD (mouse DLL3-ECD): 26700 M⁻¹ s⁻¹
3 | 0.13 | 1.18e-05 | 90700 | 149 | 0.004 | 26700 | 14.3 | 0.00033 | 23100 | 8.72 | 0.000825 | 94700 | Biotinylated 1D DARPin MAM093 (SEQ ID NO: 1) with a Glycine-Serine (GS) at the N-terminal end (designed binder, biotinylated (site and any tag used not stated), also called Biotinylated DARPin MAM093) GSDLGKKLLAAAAQGQDDEVRELLKAGANVNAKDLFGYTPLHLAAWRGHLEIVEVLLKAGADVNAKDAAGETPLHLAAWFGHLEIVEVLLKAGADVNAQDLQGKTPADLAAKEGHEDIAEVLQKAA | –
